Experiments:
[1] = target: human plasma glycoproteins; assay: far-Western, overlay or dot blot; human or rat plasma diluted 1:10, boiled with LDS sample buffer and 50 mM DTT, separated on 3 to 8% polyacrylamide gradient gels, transferred to BioTraceNT; GST-SLBR 5 nM in DPBS with 1x Blocking Reagent, 90 min, room temperature; detected with anti-GST; in duplicate
rat plasma glycoproteins = assay: far-Western blot densitometry (ImageJ); details: rat plasma; parent: est. 13; read off a plot
[2] = target: human plasma glycoproteins; assay: far-Western blot densitometry (ImageJ); details: human plasma; parent: est. 4.0; read off a plot
[3] = target: biotinylated Neu5Acα2-3Gal disaccharide; assay: ELISA; details: 500 nM immobilized GST-SLBR, read off a plot
[4] = target: biotinylated Neu5Gcα2-3Gal disaccharide; assay: ELISA; details: 500 nM immobilized GST-SLBR, read off a plot
[5] = 1 μg/ml biotinylated disaccharide, parent: est. 0.16
[6] = highest ligand concentration point, about 5 μg/ml biotinylated disaccharide, parent: est. 0.31
[7] = 1 μg/ml biotinylated disaccharide, parent: est. 0.18
[8] = highest ligand concentration point, about 5 μg/ml biotinylated disaccharide, parent: est. 0.41

| Substance | fold decrease in total binding against wild-type SLBRHsa [1] [fold] | response (Signal Intensity (x1000)) (rat plasma glycoproteins) | response (Signal Intensity (x1000)) [2] | response [3, 5] [A450] | response [3, 6] [A450] | response [4, 7] [A450] | response [4, 8] [A450] |
| --- | --- | --- | --- | --- | --- | --- | --- |
| GST-tagged SLBRHsa V370F (domain or fragment) | 3 | – | – | – | – | – | – |
| GST-tagged SLBR_(SrpA) (Siglec-like binding region of the serine-rich repeat adhesin SrpA, Streptococcus sanguinis strain SK36), wild type (from UniProt A3CM52) Y368F | – | 15 | 0.2 | 0.26 | 0.54 | 0.62 | 0.99 |
| GST-tagged SLBR_(SrpA) (Siglec-like binding region of the serine-rich repeat adhesin SrpA, Streptococcus sanguinis strain SK36), wild type (from UniProt A3CM52) Y368I | – | 19 | 0 | 0.16 | 0.32 | 0.81 | 1.1 |
| GST-tagged SLBR_(SrpA) (Siglec-like binding region of the serine-rich repeat adhesin SrpA, Streptococcus sanguinis strain SK36), wild type (from UniProt A3CM52) Y368V | – | 18 | 0 | 0.12 | 0.21 | 0.62 | 0.98 |

Reference: PMC12446635
